Assay results as given in patent US20220089698A1 (published 2022).

B1: 1.31.1-1 (antibody, human IgG1, kappa)
heavy: QVQLVQSGAEVTKPGASVRVSCEASGYNIRDYFIHWWRQAPGQGLQWVGWINPKTGQPNNPRQFQGRVSLTRHASWDFDTFSFYMDLKALRSDDTATYFCARQRSDYWDFDVWGSGTQVTVSSASTKGPSVFPLAPSSKSTSGGTAALGCLVKDYFPEPVTVSWNSGALTSGVHTFPAVLQSSGLYSLSSVVTVPSSSLGTQTYICNVNHKPSNTKVDKKVEPKSCDKTHTCPPCPAPELLAGPDVFLFPPKPKDTLMISRTPEVTCVVVDVSHEDPEVKFNWYVDGVEVHNAKTKPREEQYNSTYRVVSVLTVLHQDWLNGKEYKCKVSNKALPLPEEKTISKAKGQPREPQVYTLPPSREEMTKNQVSLTCLVKGFYPSDIAVEWESNGQPENNYKTTPPVLDSDGSFFLYSKLTVDKSRWQQGNVFSCSVLHEALHSHYTQKSLSLSPGK
light: DIQMTQSPSSLSASVGDTVTITCQANGYLNWYQQRRGKAPKLLIYDGSKLERGVPSRFSGRRWGQEYNLTINNLQPEDIATYFCQVYEFVVPGTRLDLKRTVAAPSVFIFPPSDEQLKSGTASVVCLLNNFYPREAKVQWKVDNALQSGNSQESVTEQDSKDSTYSLSSTLTLSKADYEKHKVYACEVTHQGLSSPVTKSFNRGEC
B2: 1.35.1-1 (antibody, human IgG1, kappa)
heavy: QVQLVQSGAEVKKPGASVRVSCKASGYNIRDYFMHWWRQAPGQGLQWVGWINPKTGQPNNPRQFQGRVTMTRHASWDFDTFSFYMDLSRLRSDDTATYFCARQRTDYWDFDVWGQGTMVTVSSASTKGPSVFPLAPSSKSTSGGTAALGCLVKDYFPEPVTVSWNSGALTSGVHTFPAVLQSSGLYSLSSVVTVPSSSLGTQTYICNVNHKPSNTKVDKKVEPKSCDKTHTCPPCPAPELLAGPDVFLFPPKPKDTLMISRTPEVTCVVVDVSHEDPEVKFNWYVDGVEVHNAKTKPREEQYNSTYRVVSVLTVLHQDWLNGKEYKCKVSNKALPLPEEKTISKAKGQPREPQVYTLPPSREEMTKNQVSLTCLVKGFYPSDIAVEWESNGQPENNYKTTPPVLDSDGSFFLYSKLTVDKSRWQQGNVFSCSVLHEALHSHYTQKSLSLSPGK
light: DIQMTQSPSSLSASVGDTVTITCQANGYLNWYQQRRGKAPKLLIYDGSKLERGVPSRFSGRRWGQEYNLTINNLQPEDIATYFCQVYEFVVPGTRLDLKRTVAAPSVFIFPPSDEQLKSGTASVVCLLNNFYPREAKVQWKVDNALQSGNSQESVTEQDSKDSTYSLSSTLTLSKADYEKHKVYACEVTHQGLSSPVTKSFNRGEC
B3: 1.36.1-1 (antibody, human IgG1, kappa)
heavy: QVQLVQSGAEVKKPGASVRVSCKASGYNIRDYFMHWWRQAPGQGLQWVGWINPKTGQPNNPRQFQGRVTMTRHASWDFDTFSAYMDLSRLRSDDTATYFCARQRTDYWDFDVWGQGTMVTVSSASTKGPSVFPLAPSSKSTSGGTAALGCLVKDYFPEPVTVSWNSGALTSGVHTFPAVLQSSGLYSLSSVVTVPSSSLGTQTYICNVNHKPSNTKVDKKVEPKSCDKTHTCPPCPAPELLAGPDVFLFPPKPKDTLMISRTPEVTCVVVDVSHEDPEVKFNWYVDGVEVHNAKTKPREEQYNSTYRVVSVLTVLHQDWLNGKEYKCKVSNKALPLPEEKTISKAKGQPREPQVYTLPPSREEMTKNQVSLTCLVKGFYPSDIAVEWESNGQPENNYKTTPPVLDSDGSFFLYSKLTVDKSRWQQGNVFSCSVLHEALHSHYTQKSLSLSPGK
light: DIQMTQSPSSLSASVGDTVTITCQANGYLNWYQQRRGKAPKLLIYDGSKLERGVPSRFSGRRWGQEYNLTINNLQPEDIATYFCQVYEFVVPGTRLDLKRTVAAPSVFIFPPSDEQLKSGTASVVCLLNNFYPREAKVQWKVDNALQSGNSQESVTEQDSKDSTYSLSSTLTLSKADYEKHKVYACEVTHQGLSSPVTKSFNRGEC
B4: 1.32.1-1 (antibody, human IgG1, kappa)
heavy: QVQLVQSGAEVTKPGASVRVSCEASGYNIRDYFIHWWRQAPGQGLQWVGWINPKTGQPNNPRQFQGRVSLTRHASWDFDTFSFYMDLKALRSDDTAVYFCARQRTDYWDFDVWGSGTQVTVSSASTKGPSVFPLAPSSKSTSGGTAALGCLVKDYFPEPVTVSWNSGALTSGVHTFPAVLQSSGLYSLSSVVTVPSSSLGTQTYICNVNHKPSNTKVDKKVEPKSCDKTHTCPPCPAPELLAGPDVFLFPPKPKDTLMISRTPEVTCVVVDVSHEDPEVKFNWYVDGVEVHNAKTKPREEQYNSTYRVVSVLTVLHQDWLNGKEYKCKVSNKALPLPEEKTISKAKGQPREPQVYTLPPSREEMTKNQVSLTCLVKGFYPSDIAVEWESNGQPENNYKTTPPVLDSDGSFFLYSKLTVDKSRWQQGNVFSCSVLHEALHSHYTQKSLSLSPGK
light: DIQMTQSPSSLSASVGDTVTITCQANGYLNWYQQRRGKAPKLLIYDGSKLERGVPSRFSGRRWGQEYNLTINNLQPEDIATYFCQVYEFVVPGTRLDLKRTVAAPSVFIFPPSDEQLKSGTASVVCLLNNFYPREAKVQWKVDNALQSGNSQESVTEQDSKDSTYSLSSTLTLSKADYEKHKVYACEVTHQGLSSPVTKSFNRGEC
B5: 1.34.1-1 (antibody, human IgG1, kappa)
heavy: QVQLVQSGAEVKKPGASVRVSCKASGYNIRDYFIHWWRQAPGQGLQWVGWINPKTGQPNNPRQFQGRVTLTRHASWDFDTFSFYMDLKALRSDDTAVYFCARQRTDYWDFDVWGSGTQVTVSSASTKGPSVFPLAPSSKSTSGGTAALGCLVKDYFPEPVTVSWNSGALTSGVHTFPAVLQSSGLYSLSSVVTVPSSSLGTQTYICNVNHKPSNTKVDKKVEPKSCDKTHTCPPCPAPELLAGPDVFLFPPKPKDTLMISRTPEVTCVVVDVSHEDPEVKFNWYVDGVEVHNAKTKPREEQYNSTYRVVSVLTVLHQDWLNGKEYKCKVSNKALPLPEEKTISKAKGQPREPQVYTLPPSREEMTKNQVSLTCLVKGFYPSDIAVEWESNGQPENNYKTTPPVLDSDGSFFLYSKLTVDKSRWQQGNVFSCSVLHEALHSHYTQKSLSLSPGK
light: DIQMTQSPSSLSASVGDTVTITCQANGYLNWYQQRRGKAPKLLIYDGSKLERGVPSRFSGRRWGQEYNLTINNLQPEDIATYFCQVYEFVVPGTRLDLKRTVAAPSVFIFPPSDEQLKSGTASVVCLLNNFYPREAKVQWKVDNALQSGNSQESVTEQDSKDSTYSLSSTLTLSKADYEKHKVYACEVTHQGLSSPVTKSFNRGEC
B6: 1.33.1-1 (antibody, human IgG1, kappa)
heavy: QVQLVQSGAEVKKPGASVRVSCKASGYNIRDYFIHWWRQAPGQGLQWVGWINPKTGQPNNPRQFQGRVTLTRHASWDFDTFSFYMDLKALRSDDTATYFCARQRSDYWDFDVWGSGTQVTVSSASTKGPSVFPLAPSSKSTSGGTAALGCLVKDYFPEPVTVSWNSGALTSGVHTFPAVLQSSGLYSLSSVVTVPSSSLGTQTYICNVNHKPSNTKVDKKVEPKSCDKTHTCPPCPAPELLAGPDVFLFPPKPKDTLMISRTPEVTCVVVDVSHEDPEVKFNWYVDGVEVHNAKTKPREEQYNSTYRVVSVLTVLHQDWLNGKEYKCKVSNKALPLPEEKTISKAKGQPREPQVYTLPPSREEMTKNQVSLTCLVKGFYPSDIAVEWESNGQPENNYKTTPPVLDSDGSFFLYSKLTVDKSRWQQGNVFSCSVLHEALHSHYTQKSLSLSPGK
light: DIQMTQSPSSLSASVGDTVTITCQANGYLNWYQQRRGKAPKLLIYDGSKLERGVPSRFSGRRWGQEYNLTINNLQPEDIATYFCQVYEFVVPGTRLDLKRTVAAPSVFIFPPSDEQLKSGTASVVCLLNNFYPREAKVQWKVDNALQSGNSQESVTEQDSKDSTYSLSSTLTLSKADYEKHKVYACEVTHQGLSSPVTKSFNRGEC
B7: 1.1.31-1 (antibody, human IgG1, kappa)
heavy: QVQLLQSGAAVTKPGASVRVSCEASGYNIRDYFIHWWRQAPGQGLQWVGWINPKTGQPNNPRQFQGRVSLTRHASWDFDTFSFYMDLKALRSDDTAVYFCARQRSDYWDFDVWGSGTQVTVSSASTKGPSVFPLAPSSKSTSGGTAALGCLVKDYFPEPVTVSWNSGALTSGVHTFPAVLQSSGLYSLSSVVTVPSSSLGTQTYICNVNHKPSNTKVDKKVEPKSCDKTHTCPPCPAPELLAGPDVFLFPPKPKDTLMISRTPEVTCVVVDVSHEDPEVKFNWYVDGVEVHNAKTKPREEQYNSTYRVVSVLTVLHQDWLNGKEYKCKVSNKALPLPEEKTISKAKGQPREPQVYTLPPSREEMTKNQVSLTCLVKGFYPSDIAVEWESNGQPENNYKTTPPVLDSDGSFFLYSKLTVDKSRWQQGNVFSCSVLHEALHSHYTQKSLSLSPGK
light: DIQMTQSPSSLSASVGDTVTITCQANGYLNWYQQRRGKAPKLLIYDGSKLERGVPSRFSGRRWGQEYTLTISSLQPEDIATYFCQVYEFVVPGTNLDLKRTVAAPSVFIFPPSDEQLKSGTASVVCLLNNFYPREAKVQWKVDNALQSGNSQESVTEQDSKDSTYSLSSTLTLSKADYEKHKVYACEVTHQGLSSPVTKSFNRGEC
B8: 1.12.17-1 (antibody, human IgG1, kappa, V domains shown)
VH: QVQLLQSGAAVTKPGASVRVSCEASGYNIRDYFIHWVRQAPGQGLQWVGWINPKTGQPNNPRQFQGRVSLTRHASWDFDTFSFYMDLKALRSDDTAVYFCARQRSDYWDFDVWGSGTQVTVSS
VL: DIQMTQSPSSLSASVGDTVTITCQANGYLNWYQQRRGKAPKLLIYDGSKLERGVPSRFSGRRWGQEYNLTINNLQPEDIATYFCQVYEFFGPGTRLDLKR
B9: 1.14.17-1 (antibody, human IgG1, kappa, V domains shown)
VH: QVQLLQSGAAVTKPGASVRVSCEASGYNIRDYFMHWVRQAPGQGLQWVGWINPKTGQPNNPRQFQGRVSLTRHASWDFDTFSAYMDLKALRSDDTAVYFCARQRSDYWDFDVWGSGTQVTVSS
VL: DIQMTQSPSSLSASVGDTVTITCQANGYLNWYQQRRGKAPKLLIYDGSKLERGVPSRFSGRRWGQEYNLTINNLQPEDIATYFCQVYEFFGPGTRLDLKR
B10: 1.13.17-1 (antibody, human IgG1, kappa, V domains shown)
VH: QVQLLQSGAAVTKPGASVRVSCEASGYNIRDYFMHWVRQAPGQGLQWVGWINPKTGQPNNPRQFQGRVSLTRHASWDFDTFSFYMDLKALRSDDTAVYFCARQRSDYWDFDVWGSGTQVTVSS
VL: DIQMTQSPSSLSASVGDTVTITCQANGYLNWYQQRRGKAPKLLIYDGSKLERGVPSRFSGRRWGQEYNLTINNLQPEDIATYFCQVYEFFGPGTRLDLKR

Legend:
HIV gp120 CAAN = HIV gp120 CAAN (HIV); test: single-point ELISA; note: test concentration or dose not given here
HIV gp120 Bal = HIV gp120 Bal (HIV); test: single-point ELISA; note: test concentration or dose not given here

Row | Binder | ELISA (A450) (HIV gp120 CAAN) | ELISA (A450) (HIV gp120 Bal)
1 | B1 | 0.92 | 0.82
2 | B2 | 0.87 | 0.84
3 | B3 | 0.75 | 1.13
4 | B4 | 0.83 | 0.93
5 | B5 | 0.9 | 0.83
6 | B6 | 0.98 | 0.88
7 | B7 | 0.96 | 0.87
8 | B8 | 0.84 | 0.9
9 | B9 | 0.43 | 0.89
10 | B10 | 0.78 | 1.02
